Source: paper PMC9950535, “Divalent metal cofactors differentially modulate RadA-mediated strand invasion and exchange in Saccharolobus solfataricus” (Bioscience Reports, 2023)

Legend:
[1] = biological target: T1, SsoRadA (Saccharolobus solfataricus, UniProt Q55075); assay: TLC ATPase assay, [γ-32P]ATP; type: biochemical
T1 construct: gene radA
T1 sequence (Q55075 1-324): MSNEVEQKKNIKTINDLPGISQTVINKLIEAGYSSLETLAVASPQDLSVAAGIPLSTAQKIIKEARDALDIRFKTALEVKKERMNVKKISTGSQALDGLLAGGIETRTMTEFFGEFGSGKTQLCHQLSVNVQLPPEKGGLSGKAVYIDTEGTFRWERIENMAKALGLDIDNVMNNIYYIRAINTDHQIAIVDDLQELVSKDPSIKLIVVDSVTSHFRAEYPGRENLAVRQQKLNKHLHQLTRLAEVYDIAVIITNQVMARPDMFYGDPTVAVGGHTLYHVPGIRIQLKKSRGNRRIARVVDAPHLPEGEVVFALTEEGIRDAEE

[2] = biological target: T1, SsoRadA; assay: filter binding
[3] = substrate: Nc1ncnc2c1ncn2[C@@H]1O[C@H](COP(=O)(O)OP(=O)(O)OP(=O)(O)O)[C@@H](O)[C@H]1O; assay: TLC ATPase assay, initial rates; type: biochemical, Saccharolobus solfataricus; details: 10 mM Mg2+, 20 μM (nucleotides) φX174 ssDNA, 0.5 μM SsoRadA, 25 mM Tris acetate pH 7.5, 65°C
[4] = biological target: T2, SsoRadA (Saccharolobus solfataricus, UniProt Q55075 1-324); assay: filter binding; 10 mM Mn2+, no ATP; Filter binding: 40 mM HEPES pH 7.0, 50 mM KCl, 10 mM CaCl2, MgCl2 or MnCl2, 20 pmol SsoRadA, 3 uM ATP where included, ssDNA varied; temperature not stated; details: protein: recombinant; single strand
T2 sequence: T1 sequence (Q55075 1-324)

[5] = biological target: T2, SsoRadA; assay: filter binding; 10 mM Mg2+, 3 uM ATP; Filter binding: 40 mM HEPES pH 7.0, 50 mM KCl, 10 mM CaCl2, MgCl2 or MnCl2, 20 pmol SsoRadA, 3 uM ATP where included, ssDNA varied; temperature not stated; details: protein: recombinant; single strand
[6] = biological target: T2, SsoRadA; assay: filter binding; 10 mM Mn2+, 3 uM ATP; Filter binding: 40 mM HEPES pH 7.0, 50 mM KCl, 10 mM CaCl2, MgCl2 or MnCl2, 20 pmol SsoRadA, 3 uM ATP where included, ssDNA varied; temperature not stated; details: protein: recombinant; single strand

Molecule `Nc1ncnc2c1ncn2[C@@H]1O[C@H](COP(=O)(O)OP(=O)(O)O)[C@@H](O)[C@H]1O` [ADP] has an IC50 [1] of 112 µM.

In the case of `Nc1ncnc2c1ncn2[C@@H]1O[C@H](CO[P@](=O)(O)O[P@](=O)(O)O[P@@](=O)(O)S)[C@@H](O)[C@H]1O` [ATPγS], the IC50 [1] is reported as 87.8 µM.

`Nc1ncnc2c1ncn2[C@@H]1O[C@H](COP(=O)(O)OP(=O)(O)OP(=O)(O)O)[C@@H](O)[C@H]1O` [ATP] was tested, and the Kd [2] was 1130 ± 440 nM.

B1: SsoRadA (Saccharolobus solfataricus P2) (protein)
chain: T1 sequence (Q55075 1-324)
For B1, the Km [3] was 2.3 ± 0.47 µM and the kcat [3] was 1.7 ± 0.09 min⁻¹.

B2: 63-mer oligonucleotide (ssDNA)
DNA: ACAGCACCAATGAAATCTATTAAGCTCCTCATCGTCCGCAAAAATATCGTCACCTCAAAAGGA
B2 was tested, and the Kd [4] was 82.4 ± 13.2 nM, the Kd [5] was 21.3 ± 1.6 nM and the Kd [6] was 23.1 ± 14.4 nM.
